# Test: soluble on expression in E. coli; label from the status in PepcDB or PDB records
row,Sequence,soluble on expression in E. coli
1,MGSDKIHHHHHHMGNSVLKMMIDAGPIMRTVSLPRGRHSLHTMPTSTGYEVRSDATYDWDGRKRGQTPFTVLQHTISGAGNLRYENSTYRVTPGQTLLVLVPHNHRYWLEPGGRWEFFWISMNGEEALRIHNAILTAMGPIFNLNQQTVEHLADCSQRLIAGGAETPGRASAIAYEAAMALYDDVFGSHPTLSAEYRTMQHVIDHISANLDQSLSVEQLAAVSGLSRAHFSRVFAASEGMPPAEFVLHKRLKRAVKLLTKGSHLSVKEISTMCGFEEPNYFSKVFRRHFGASPTEFRTTGMYSSILQGGVEAETKPARFHRPDVNE,not soluble
2,MGSDKIHHHHHHMIQVPASFDIQGHRGCRGLLPENTIAAFTKALLLGVTTLEFDLVISKDNRVVVSHDTFFHHEITMMVDGEDVTEANEKNFNLYAMNYADIKEIDVGMKTHPRFKSQKKVPAVKPLFRELIETAEKLSAKIQYNGEIKSTVEGDNIDHPNIALFCDLVVAEIKKAHITDRFTLQSFDVRALEYMHSQYPDIKLSYLVETKGTLKKQLEKLSFTPAVYSPDVTLVSKKDIDAAHKLGMRVIPWTVNTKEEIETLISLGVDGIITDYPDLFFEK,not soluble
3,MGSDKIHHHHHHMNKSIRSSTLTRIRLIEAASQVFASLGVQGATTREIARVAGVNEVTLFRHFASKEQLLGAVIKNALALQTEALAYPEAWTQDLKIDLRQYAHLYNTMLEAQEDLIRTFIGEAKRHPEAAKQVIQEAAKPLREKLVAYLESSQKLGTVRVDLAPFPAVDMFTGMLLAGMLCRSAKFNQGSYSCEDYIETCVDIFVRGISTSNSSQCGCKF,not soluble
4,MGSDKIHHHHHHMKKFTLDYLSPRVVFGAGTASALPDEIGRLGARRPLVLSSPEQRELAKDIVRPIGDRVAGYFDGATMHVPVDVIQKAERAFNDTDADSIIAIGGGSTTGLAKILSMNLDVPSLVIPTTYAGSEMTTIWGVTEGGMKRTGRDPKVLPKTVIYDPLLTVDLPLAISVTSALNAIAHAAEGLYSADLNPVLETMCKQGICALFDAIPRLVAKPTDAEARTDALFGAWMCGTALCHLGMGLHHKLCHTLGGTLNLPHAETHAIVLPHALAYNLPYAAPAERLLQEVAGSSDVPSALYDLARNAGAPLSLAEIGMRPEDIPRVRDLALRDQYPNPRPLESDALETLLVNAFRGRRPDFK,not soluble
5,MGSDKIHHHHHHMLDDIKKTLWATADKQRANMDAAEYKHIVLGLIFLKYISDTFAGRRAELTRRFADENDEYFLRECDDELLAEELEDRDYYREVNVFWVPETARWESLRSAAKQTDIGKRIDEALAEIEAENPKLKGILDKRYARSQLPDGKLGELVDLISTIGFGEDASHARDVLGQVYEYFLGQFASAEGKKGGQFYTPASIVKTLVAVLAPHHGKVYDPCCGSGGMFVQSEKFIEAHGGKLGDVSIYGQESNPTTWRLAAMNLAIRGIDYNLGREPADTFVRNQHPDLRADFVLANPPFNVSDWWHGSLEGDPRWVYGTPPQGNANYAWLQHMLYHLKPNGRAGIVLANGSMSSSQNSEGDIRRAMVDADVVEVMVALPGQLFFNTQIPACLWFLAKQKTTRKGEVLFIDARKLGSMISRVQTELTDEIIERIANTVAAWRGEAIDGVGEYADVPGYCRSVKLAEIAEHGHVLTPGRYVGAEKVEDDDEAFVEKMQKLTEMLGEQMAKGAELDQLIRQKLGGMGYEF,not soluble
6,MEIIYPPLVEEGLKYYLETTQQSLDKSTFYRSMVERGIITETGLPTQQAIENGLVKDYYEDQGLSFDDFLRIYPIFEEYDEELFQCIDGYWEIPVDMKENLASQLESGELTFEDAQQIQAYLEDR,not soluble
7,SPVVVVTGASRGIGKAIALSLGKAGCKVLVNYARSAKAAEEVSKQIEAYGGQAITFGGDVSKEADVEAMMKTAIDAWGTIDVVVNNAGITRDTLLIRMKKSQWDEVIDLNLTGVFLCTQAATKIMMKKRKGRIINIASVVGLIGNIGQANYAAAKAGVIGFSKTAAREGASRNINVNVVCPGFIASDMTAKLGEDMEKKILGTIPLGRTGQPENVAGLVEFLALSPAASYITGQAFTIDGGIAI,soluble
8,MHSHLIPGIDDGSKSMEESLSLIQEFKKLGYKKIITTPHIMGDFFKNSKETIFPGLIELRASIAEAGIDIEIEAAAEYYLDEWFIEKLERNEPLLKLGGNYVLFETSYMNRPTQLHQAIFLMRSLGYIPVLAHPERYTYLYEDFKLFKEIYEMDVLFQINLNSLAGYYSKTAKLYAEKLIDNNMVDFVGTDCHGQRHIDVLAKVKVSNYYQKLQKLSILNNTLIS,not soluble
9,MEELASLTKTADGKVLTSVTQKRNRADAATYIGKGKVEELKALVEELEADLLIFNDELSPSQLKSLATAIEVKMIDRTQLILDILAKRARTREGKLQIELAQLQYALPRLTGQGINLSRQGGGIGARGPGETKLETDRRHIRNRIHEINTQVSTVIRHRSRYRERRKKNGVLQIALVGYTNAGKSTWFNRLTSADSYEEDLLFATLDPMTRKMVLPSGYSVLLSDTVGFIQDLPTTLIAAFRSTLEEVKEADLILHLIDSSNEDYAGHEKTVLRLLEELEADDIPMLTAYNKRDQKLPDFYRPPEGITLWSVRNLRTTLQPLKKRFSAICAKNCLEHHHHHH,not soluble
10,MGSDKIHHHHHHMSNVISVENLGKKYLISHQGREPYTALRDVLTDGARAFYRRLFSPGTSQADAQAEEFWALKDVSFEVKQGDRIGIIGRNGAGKSTLLKILSRITEPTEGRVRIRGRVASLLEVGTGFHPELTGRENIFLNGAILGMNRAEIARKFDEIVAFAEIEKFLDTPVKRYSSGMYVRLAFAVAAHLEPEILIVDEVLAVGDAQFQNKCLGKMEDVSTKEGRTVLFVSHNMGAIDRLCTRAVLLERGRVRLADFTKPVIQMYLDKAKNAISAWSCSTSIPDFDGIFFESISIVNKDRKIAEVLPSNEPFSITLVVNATASLKGVQIAIRITNEQGIPILTTTNCDKAGKLQEISRGRYRYTVSLPASFLPPGYYTLIVASFVPGEKLFDGVEDKLGFCIDDMGSLATLMKDGRLGVVTPLMPWDEVRL,not soluble
11,MSYTATNQPVRAPPLNSDYELIDGDPYFTRVVSYFRFSDYVNWAVITASFPLGMKLWEKIVPSQGKGLKPSVVNPVTLRVSTLLGFFGGFCLNYVKSSQRFLGWRENSREVKLDRFEIKQKLSQGVLPYNEHLSKLDDRNKDISNRNSQYSHALLFVIPWFNTTYHPYHQVDLKKYYINREGEENWGFELKPLDEIYAKYGKKF,not soluble
12,MGSDKIHHHHHHMPRITQEISYNCDYGDNTFNLAIDIGGTLAKVVFSPIHSNRLMFYTIETEKIDKFMELLHSIIKEHNNGCYRMTHIIATGGGAFKFYDLLYENFPQIKGISRFEEMEGLIHGLDFFIHEIPDEVFTYNDQDGERIIPTSSGTMDSKAIYPYLLVNIGSGVSILKVTEPNNFSRVGGSSLGGGTLWGLLSLITGAQTYDQMLDWAQEGDNSSVDMLVGDIYGTDYNKIGLKSSAIASSFGKVFQNRMTSNKSLENNENKLYSSHESIEKNNGQMFKNPDICKSLLFAISNNIGQIAYLQAKINNIQNIYFGGSYTRGHLTTMNTLSYAINFWSQGSKQAFFLKHEGYLGAMGAFLSASRHSSTKKTST,not soluble
13,MAHHHHHHSLNTNLKPKLQRFASATAFACPICQENLTLLETNFKCCNRHSFDLAKFGYVNLAPQIKQSANYDKENFQNRQQILEAGFYQAILDAVSDLLASSKTTTTILDIGCGEGFYSRKLQESHSEKTFYAFDISKDSVQIAAKSEPNWAVNWFVGDLARLPIKDASMDILLDIFSPANYGEFRRVLSKDGILIKVIPTENHLKEIRQRVQDQLTNKEYSNQDIKEHFQEHFTILSSQTASLTKTITAEQLQALLSMTPLLFHVDQSKIDWSQLTEITIEAEILVGKAFEG,soluble
14,NDSPFYVNPNMSSAEWVRNNPNDPRTPVIRDRIASVPQGTWFAHHNPGQITGQVDALMSAAQAAGKIPILVVSNAPGRDCGNHSSGGAPSHSAYRSWIDEFAAGLKNRPAYIIVEPDLISLMSSCMQHVQQEVLETMAYAGKALKAGSSQARIYFDAGHSAWHSPAQMASWLQQADISNSAHGIATNTSNYRWTADEVAYAKAVLSAIGNPSLRAVIDTSRNGNGPAGNEWCDPSGRAIGTPSTTNTGDPMIDAFLWIKLPGEADGCIAGAGQFVPQAAYEMAIAA,soluble

# From the DeepSol protein solubility set
